Reference: patent US20080160035A1 (Regeneron, published 2008)

Experiments:
[1] = target: T1, hIL-4R on cells (STAT6-transfected HEK293, TF1, TF1/A12) (human, UniProt P24394 26-825); experiment: cell-based or functional assay
T1 sequence (looked up): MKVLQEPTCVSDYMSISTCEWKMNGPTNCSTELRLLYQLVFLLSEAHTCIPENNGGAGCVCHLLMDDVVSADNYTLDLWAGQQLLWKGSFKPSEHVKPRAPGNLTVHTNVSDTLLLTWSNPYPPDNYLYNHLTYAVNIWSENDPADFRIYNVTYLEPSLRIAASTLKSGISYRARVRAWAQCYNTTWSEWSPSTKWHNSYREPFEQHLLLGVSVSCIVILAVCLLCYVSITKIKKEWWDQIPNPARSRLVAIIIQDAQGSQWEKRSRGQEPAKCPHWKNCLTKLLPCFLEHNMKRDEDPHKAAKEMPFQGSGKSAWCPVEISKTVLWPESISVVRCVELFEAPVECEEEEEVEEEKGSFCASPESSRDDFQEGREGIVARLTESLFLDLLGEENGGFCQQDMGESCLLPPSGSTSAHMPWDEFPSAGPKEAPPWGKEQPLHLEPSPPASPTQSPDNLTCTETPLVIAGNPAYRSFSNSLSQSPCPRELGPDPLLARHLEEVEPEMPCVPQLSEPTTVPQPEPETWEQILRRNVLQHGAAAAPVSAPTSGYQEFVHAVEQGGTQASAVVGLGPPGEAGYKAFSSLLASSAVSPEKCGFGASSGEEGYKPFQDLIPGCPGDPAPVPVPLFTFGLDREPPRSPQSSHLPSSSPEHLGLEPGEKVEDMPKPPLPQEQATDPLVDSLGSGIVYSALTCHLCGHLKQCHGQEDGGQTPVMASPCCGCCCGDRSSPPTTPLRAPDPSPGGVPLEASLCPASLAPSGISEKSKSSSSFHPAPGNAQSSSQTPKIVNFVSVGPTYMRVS

[2] = target: T1, hIL-4R on cells (STAT6-transfected …); experiment: cell-based or functional assay; remark: listed apart in the source
[3] = target: T2, mouse IL-4R (mouse, UniProt P16382 26-233, limits assumed); experiment: binding affinity test of Example 2 (method not restated)
T2 sequence (looked up): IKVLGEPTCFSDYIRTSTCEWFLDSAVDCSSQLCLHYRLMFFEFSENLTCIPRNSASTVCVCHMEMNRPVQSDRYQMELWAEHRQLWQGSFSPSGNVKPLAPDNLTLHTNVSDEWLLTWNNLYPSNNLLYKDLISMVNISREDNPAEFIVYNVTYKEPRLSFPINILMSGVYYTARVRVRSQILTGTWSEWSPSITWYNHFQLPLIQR

[4] = target: T3, monomeric hIL-4R (R&D Systems) (human, UniProt P24394 26-231); experiment: SPR (BIAcore 2000); antibody captured, monomeric hIL-4R injected
T3 construct: Bought (R&D Systems); also called hIL-4R monomer
T3 sequence: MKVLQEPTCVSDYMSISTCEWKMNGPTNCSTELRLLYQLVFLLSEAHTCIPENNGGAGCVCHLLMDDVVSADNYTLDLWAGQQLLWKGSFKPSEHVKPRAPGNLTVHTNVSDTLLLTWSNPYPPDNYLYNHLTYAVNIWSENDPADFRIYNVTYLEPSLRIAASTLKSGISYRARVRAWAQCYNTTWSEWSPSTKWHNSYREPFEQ
Protocol: (§1) Binding affinity (KD) of selected antibodies with respect to hIL-4R was determined using a real-time biosensor surface plasmon resonance assay (BIAcore™ 2000). Briefly, antibody was captured on a goat anti-mouse (GAM) IgG polyclonal antibody surface created through direct chemical coupling of the GAM IgG to a BIAcore™ chip to form a captured antibody surface. […] Binding of antigen to antibody and dissociation of the bound complex, were monitored in real time. Equilibrium dissociation constants (KD) and dissociation rate constants were ascertained by performing kinetic analysis using BIA evaluation software. BIA evaluation software was also used to calculate the half-life of antigen/antibody complex dissociation (T_{1/2}). […] The binding affinity of anti-hIL-4R antibodies to either mouse or monkey (Macaca fascicularis) IL-4R was also tested.

[5] = target: T4, dimeric hIL-4R-hFc (human, UniProt P24394 26-232); experiment: SPR (BIAcore 2000); antibody captured, dimeric hIL-4R-hFc injected
T4 construct: also called hIL-4R-Fc; not shown: human Fc (hFc)
T4 sequence: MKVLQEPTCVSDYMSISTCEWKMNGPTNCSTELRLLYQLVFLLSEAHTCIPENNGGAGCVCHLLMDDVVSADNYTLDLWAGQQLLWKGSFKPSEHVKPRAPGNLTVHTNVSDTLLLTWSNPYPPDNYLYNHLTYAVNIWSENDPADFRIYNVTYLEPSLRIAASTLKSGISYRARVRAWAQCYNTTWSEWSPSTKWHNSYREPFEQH
Protocol: as §1

[6] = target: T4, dimeric hIL-4R-hFc; experiment: ELISA; antibody titrated against 25 pM hIL-4R-Fc, free receptor caught on hIL-4 plate
Protocol: Concentration of free hIL-4R-Fc (no antibody bound) was determined using a hIL-4R-specific sandwich ELISA. […] After a one-hour incubation at room temperature, the detection plate was washed and plate-bound hIL-4R-hFc was detected using HRP conjugated goat anti-hFc polyclonal antibodies and developed using colorimetric substrates such as BD OptEIA™ (BD Biosciences Pharmingen, San Diego, Calif.). After the reaction was stopped with 1 M phosphoric or sulfuric acid, absorbances at 450 nm were recorded and the data were analyzed using GraphPad™ Prism software.

[7] = target: T4, dimeric hIL-4R-hFc; experiment: SPR; reduction of hIL-4 (50 nM) binding to captured hIL-4R-hFc after antibody; competitor hIL-4
Excerpt: Purified hIL-4R-hFc molecules were captured by goat anti-human IgG polyclonal antibody immobilized on CM-5 to a density of 260 RU, to prepare a receptor-coated surface.

B1: VAB 1H1-2 (antibody, V domains shown)
VH: QVQLVQSGAEVKKPGASVKVSCKASGYTFTSYGISWVRQAPGQGLEWMGWISVYNGNTNYAQKLQGRVTMTTDTSTSTAYMDLRSLRSDDAAVYYCARGSGYDFDYWGQGTLVTVSS
VL: AIQMTQSPSSLSASVGDRVTITCRASQGIRNALGWYQQKPGKAPKLLIYAASSLQSGVPSRFSGSGSGTDFTLTISSLQSEDFATYYCLQDYNYPYTFGQGTKLEIK
notes: Apparently tested with mouse constant region (anti-mouse IgG capture/detection)
STAT6 Bioassay IC50 (HEK293 STAT6 luciferase, 10 pM hIL-4) [1]: > 10 nM
TF1/A12 Bioassay IC50 (proliferation, 20 pM hIL-4) [1]: > 50 nM
STAT6 Bioassay IC50 (HEK293 STAT6 luciferase, 40 pM hIL-13) [2]: > 10 nM
binding result [3]: no binding
Kd [4]: 34900 pM
T1/2 monomeric [4]: 0.133 h
Kd [5]: 139 pM
T1/2 dimeric [5]: 8.2 h
IC50 [6]: 146 pM
% Inhibition (BIAcore) [7]: 78%

B2: VAB 3B4-10 (antibody, V domains shown)
VH: QVHLVQSGAEVKKPGASVKVSCKASGYTFTNYGIGWVRQAPGQGLEWMGWISIYNGNTNYAQRLQGRVTMTTDTSTSTAFMDLRSLKSDDTAVYYCARGSGYNFDHWGQGTLVTVSS
VL: AIQMTQSPSSLSASVGDRVTITCRASQGIRNDLGWYQQIPGKAPKLLIYAASSLQSGVPSRFSGSGSGTDFTLTISNLQPEDFAVYFCLQDNTYPYTFGQGTNLESK
notes: as for B1
STAT6 Bioassay IC50 (HEK293 STAT6 luciferase, 10 pM hIL-4) [1]: > 10 nM
TF1/A12 Bioassay IC50 (proliferation, 20 pM hIL-4) [1]: > 50 nM
STAT6 Bioassay IC50 (HEK293 STAT6 luciferase, 40 pM hIL-13) [2]: 8.3 nM
binding result [3]: no binding
Kd [4]: 590 pM
T1/2 monomeric [4]: 1.7 h
Kd [5]: 53 pM
T1/2 dimeric [5]: 20.4 h
IC50 [6]: 322 pM
% Inhibition (BIAcore) [7]: 72%

B3: VAB 6C10-14 (antibody, V domains shown)
VH: QVQLVQSGAEVKKPGASVKVSCKASGYTFTNYGLTWVRQAPGRGLEWMGWISVYNGNTNYAQTLKGRVTMTTDTSTSTAYMELKSLRSDDTAVYYCARGSGYDFDYWGQGTLVTVSS
VL: AIQMTQSPSSLSASVGDRVAITCRASQDIRNDLGWYQQKPGKAPKLLIHTASSLQSGVPSRFSGSGSGTDFTLTISNLQPEDFATYYCLQDNSYPYTFGQGTKLEIN
notes: as for B1
STAT6 Bioassay IC50 (HEK293 STAT6 luciferase, 10 pM hIL-4) [1]: > 10 nM
TF1/A12 Bioassay IC50 (proliferation, 20 pM hIL-4) [1]: 23 nM
STAT6 Bioassay IC50 (HEK293 STAT6 luciferase, 40 pM hIL-13) [2]: > 10 nM
binding result [3]: no binding
Kd [4]: 1770 pM
T1/2 monomeric [4]: 1.22 h
Kd [5]: 286 pM
T1/2 dimeric [5]: 6.2 h
IC50 [6]: 441 pM
% Inhibition (BIAcore) [7]: 79%

B4: VX 4E7-9 (antibody, V domains shown)
VH: QVQLVQSGAEVKKPGASVKVSCKASGYTFTNYGISWVRQAPGQGLEWMGWISVYNGKTNYAQKLQGRVTMTTDTSTTTAYMEMRSLRSDDTAVYYCARGSGYDLDYWGQGTLVSVSS
VL: AIQMTQSPSSLSASVGDRVTITCRASQGIRNALGWYQQKPGKAPKLLIYAASSLQSGVPSRFSGSGSGTDFTLTFSSLQPEDFATYYCLQDFNYPYTFGQGTKLEIK
notes: 387/389; Apparently tested with mouse constant region (anti-mouse IgG capture/detection)
STAT6 Bioassay IC50 (HEK293 STAT6 luciferase, 10 pM hIL-4) [1]: 7.9 nM
TF1/A12 Bioassay IC50 (proliferation, 20 pM hIL-4) [1]: 10 nM
STAT6 Bioassay IC50 (HEK293 STAT6 luciferase, 40 pM hIL-13) [2]: 6.3 nM
binding result [3]: no binding
Kd [4]: 1430 pM
T1/2 monomeric [4]: 0.8 h
Kd [5]: 111 pM
T1/2 dimeric [5]: 19.1 h
IC50 [6]: 118 pM
% Inhibition (BIAcore) [7]: 79%

B5: VAB 11G8-1 (antibody, V domains shown)
VH: QVQLVQSGAEVKKPGASVKVSCKASGYTFTNYGISWVRQAPGQGLEWMGWISVYNGHTNYAQKLQGRVTMTTDTSTSTAYMELRSLRSDDTAVYYCARGSGYDFDSWGQGTLVTVSS
VL: AIQMTQSSSSLSASVGDRVTITCRASQAIRNALGWYQQKPGKAPKVLIYAASSLQSGIPSRFSGSGSGTDFTLTISSLQPEDFATYYCLQDYDYPYTFGQGTKLEIK
notes: as for B1
STAT6 Bioassay IC50 (HEK293 STAT6 luciferase, 10 pM hIL-4) [1]: > 10 nM
TF1/A12 Bioassay IC50 (proliferation, 20 pM hIL-4) [1]: > 50 nM
STAT6 Bioassay IC50 (HEK293 STAT6 luciferase, 40 pM hIL-13) [2]: 8.8 nM
binding result [3]: no binding
Kd [4]: 1630 pM
T1/2 monomeric [4]: 0.417 h
Kd [5]: 108 pM
T1/2 dimeric [5]: 8.7 h
IC50 [6]: 240 pM
% Inhibition (BIAcore) [7]: 77%

B6: VAB 8G10-1 (antibody, V domains shown)
VH: QVQLVQSGPEVKKPGASVKVSCKASGYTFTNYGISWVRQAPGQGLEWMGWISVYNGNINYAQKLQGRVTMTTDTSTSTAYMDLRSLRSDDTAVYYCARGSGYDFDYWGQGTLVTVSS
VL: AIQMTQSPSSLSASVGDRVTITCRASQDIRNALGWYQQKPGKAPKLLIYAASSLQSGVPSRFSGSASGTDFTLTISSLQPEDFAAYYCLQDYNYPYTFGQGTKLEIK
notes: as for B1
STAT6 Bioassay IC50 (HEK293 STAT6 luciferase, 10 pM hIL-4) [1]: > 10 nM
TF1/A12 Bioassay IC50 (proliferation, 20 pM hIL-4) [1]: > 50 nM
STAT6 Bioassay IC50 (HEK293 STAT6 luciferase, 40 pM hIL-13) [2]: > 10 nM
binding result [3]: no binding
Kd [4]: 7710 pM
T1/2 monomeric [4]: 0.467 h
Kd [5]: 5510 pM
T1/2 dimeric [5]: 4.1 h
IC50 [6]: 244 pM
% Inhibition (BIAcore) [7]: 74%

B7: VAB 4D5-3 (antibody, V domains shown)
VH: QVQLVQSGPEVKKPGASVKVSCKASGYTFTNYGISWVRQAPGQGLEWMGWISVYNGKTNYAQKFQGRVTMTTDTSTSTAYMDLRSLRSDDTAVYYCARGSGYDFDYWGQGTLVTVSS
VL: AIQMTQSPSSLSASVGDRVTITCRASQGIRNALGWYQQKPGKAPKLLIFASSSLQSGVPSRFSGSGSGTDFTLTIRSLQPEDFAAYYCLQDYNYPYTFGQGTKLEIK
notes: as for B1
STAT6 Bioassay IC50 (HEK293 STAT6 luciferase, 10 pM hIL-4) [1]: 3.8 nM
TF1/A12 Bioassay IC50 (proliferation, 20 pM hIL-4) [1]: 21 nM
STAT6 Bioassay IC50 (HEK293 STAT6 luciferase, 40 pM hIL-13) [2]: 3.3 nM
binding result [3]: no binding
Kd [4]: 2020 pM
T1/2 monomeric [4]: 0.583 h
Kd [5]: 32 pM
T1/2 dimeric [5]: 20.4 h
IC50 [6]: 240 pM
% Inhibition (BIAcore) [7]: 82%

B8: VAB 5C5-11 (antibody, V domains shown)
VH: QVQLVQSGAEVQKPGASVKVSCKASGYTFTGQYIHWVRQAPGQGLEWMGWINPNSGGTNFAQKFQDRVTMTRDTSIGTVYMELRRLTSDDTAVFYCVREKRGFDIWGQGTMVTVSS
VL: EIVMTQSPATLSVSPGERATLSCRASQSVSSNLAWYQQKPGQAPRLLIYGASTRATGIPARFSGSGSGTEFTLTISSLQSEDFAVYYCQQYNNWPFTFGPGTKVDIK
notes: as for B1
STAT6 Bioassay IC50 (HEK293 STAT6 luciferase, 10 pM hIL-4) [1]: 0.14 nM
TF1/A12 Bioassay IC50 (proliferation, 20 pM hIL-4) [1]: 0.37 nM
TF1 Bioassay IC50 (proliferation, 50 pM hIL-4) [1]: 0.21 nM
STAT6 Bioassay IC50 (HEK293 STAT6 luciferase, 40 pM hIL-13) [2]: 60 pM
TF1 Bioassay IC50 (proliferation, 150 pM hIL-13) [2]: 0.82 nM
binding result [3]: no binding
Kd [4]: 130 pM
T1/2 monomeric [4]: 0.783 h
Kd [5]: 27 pM
T1/2 dimeric [5]: 7.7 h
IC50 [6]: 24 pM
% Inhibition (BIAcore) [7]: 96%
